Among the data in the supplement of paper PMC9732359 are protein stability index values, retold here.

± gives the uncertainty stated by the source.

The nature of the series: protein stability index of a GFP-peptide fusion (yeast GPS) (PSI 1-4); higher = more stable; sorted into four equal gates, so the index is relative within each strain. The method in brief:
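Tiled yeast protein peptides of 17 residues were each joined downstream of GFP, on plasmids that also express Cherry. The pooled library was maintained in yeast, and mid-log cultures in leucine-free medium were sorted into four equal gates on the GFP/Cherry ratio. Plasmids from every gate were amplified by PCR and sequenced on Illumina, with barcodes linking reads to strains. The protein stability index of a peptide is its gate-number-weighted read frequency summed over the gates.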

With DLETSLSQSSSYLETLT [MED2], the protein stability index (doa10∆) came to 2.94 ± 0.075, the protein stability index (pdr5∆) was determined as 3.12 ± 0.11, the protein stability index (san1∆) is 2.7 ± 0.077 and the protein stability index (ubr1∆) came out at 2.96 ± 0.099.
As for SNLTIYPIYELLMSCPR [GRR1], the protein stability index is, setting by setting: (doa10∆) 1.72 ± 0.083; (pdr5∆) 1.75 ± 0.071; (san1∆) 1.89 ± 0.13; (ubr1∆) 1.83 ± 0.056.
As to SRSTEKKNDMNTSAKNK [SIR4], the protein stability index (doa10∆) came out at 2.52 ± 0.051, the protein stability index (pdr5∆) turned out to be 2.66 ± 0.05, the protein stability index (san1∆) came to 2.9 ± 0.052 and the protein stability index (ubr1∆) came out at 2.88 ± 0.047.
Regarding KSLGGGAALKDIEIVRV [FAS2], the protein stability index stood at 2.27 ± 0.26 (doa10∆), 3.39 ± 0.15 (pdr5∆) and 3.17 ± 0.088 (san1∆).
With YGTATADDADIEMKDVS [MED1], the protein stability index reads like this: (doa10∆) 3 ± 0.13; (pdr5∆) 3.17 ± 0.081; (san1∆) 3.01 ± 0.061; (ubr1∆) 3.15 ± 0.071.
KYDRILKEVPTYRYVSV [RPS25A]: the protein stability index was 2.87 ± 0.22 (san1∆) and 2.89 ± 0.14 (ubr1∆).
On to WTMRIEGRLLDNVQAND [SNF12], for which the protein stability index (doa10∆) came to 2.48 ± 0.09, the protein stability index (pdr5∆) stood at 2.96 ± 0.096, the protein stability index (san1∆) was 2.7 ± 0.065 and the protein stability index (ubr1∆) turned out to be 2.93 ± 0.047.
For DDLEKTLDKKDSIPLRI [RPN9], the protein stability index is, setting by setting: (pdr5∆) 2.3 ± 0.14; (san1∆) 2.94 ± 0.11; (ubr1∆) 2.33 ± 0.11.
As to LAKAVAATIGANFIFSP [RPT4], the protein stability index was 2.09 ± 0.048 (doa10∆), 1.99 ± 0.042 (pdr5∆), 1.72 ± 0.088 (san1∆) and 2.18 ± 0.069 (ubr1∆).
Turning to VEAGMIALRNGQSSVKH [RPT5], the protein stability index is, setting by setting: (doa10∆) 2.87 ± 0.14; (pdr5∆) 2.9 ± 0.16; (san1∆) 2.79 ± 0.11; (ubr1∆) 2.6 ± 0.11.
For IISSNENALIELKNELA [YIL149C/MLP2], the protein stability index is, setting by setting: (doa10∆) 2.53 ± 0.15; (pdr5∆) 2.93 ± 0.077; (san1∆) 2.71 ± 0.14; (ubr1∆) 3.07 ± 0.12.
Regarding ETPKSNNSLSYHSGRLL [ITC1], the protein stability index reads like this: (doa10∆) 3.22 ± 0.14; (pdr5∆) 3.06 ± 0.12; (san1∆) 2.63 ± 0.13; (ubr1∆) 3.32 ± 0.078.
As to SNAFYSVLRDTLVAQNL [SMC4], the protein stability index by setting is: (doa10∆) 2.13 ± 0.086; (pdr5∆) 2.09 ± 0.054; (san1∆) 1.94 ± 0.076; (ubr1∆) 2.13 ± 0.033.
As to MTEDIEQKKTATEVTPQ [RPC19], the protein stability index is 2.8 ± 0.12 (doa10∆), 3.2 ± 0.093 (pdr5∆), 3.1 ± 0.098 (san1∆) and 3.28 ± 0.11 (ubr1∆).
Turning to FRPIEIFTDFLPSSNGS [RRP42], the protein stability index was found to be 2.19 ± 0.065 (doa10∆), 3.07 ± 0.08 (pdr5∆), 3.09 ± 0.056 (san1∆) and 2.87 ± 0.063 (ubr1∆).
The like results for ELGVSIYDFPGTPEATK [NUT2] were, in that order, 2.92 ± 0.076, 3.06 ± 0.098, 3.06 ± 0.078 and 3.04 ± 0.048.
In the case of RIHRLARYYRTVAVLPP [RPS13], the protein stability index is, setting by setting: (doa10∆) 1.83 ± 0.088; (pdr5∆) 1.8 ± 0.06; (san1∆) 2.44 ± 0.074; (ubr1∆) 2.11 ± 0.046.
The corresponding values for TKRLGTPESVKPANASH [RGR1] are 2.37 ± 0.08, 2.63 ± 0.077, 2.26 ± 0.11 and 2.76 ± 0.095.
For the setting “ubr1∆”, YSEEPREKVRKLSQYVQ [FAS2] had a protein stability index of 3.16 ± 0.26.
For the sequence VLCNSNISKSRAKPVTN [RRP6], the protein stability index reads like this: (doa10∆) 2.3 ± 0.083; (pdr5∆) 2.67 ± 0.096; (san1∆) 2.09 ± 0.11; (ubr1∆) 2.14 ± 0.067.
In the case of LAASEIGISIVGRFSTI [ECM29], the protein stability index by setting is: (doa10∆) 2.51 ± 0.091; (pdr5∆) 2.95 ± 0.078; (san1∆) 2.88 ± 0.073; (ubr1∆) 2.3 ± 0.064.
On to TSIARIGDYILKSPVLS [QCR7], for which the protein stability index (doa10∆) was determined as 1.5 ± 0.045, the protein stability index (pdr5∆) was 1.72 ± 0.045, the protein stability index (san1∆) stood at 1.49 ± 0.075 and the protein stability index (ubr1∆) came out at 1.98 ± 0.033.
The corresponding values for ANFKTSKKYQLADWRIR [RRP6] are 2.97 ± 0.1, 3.05 ± 0.096, 2.84 ± 0.15 and 2.92 ± 0.1.
Take YDNEKTAELIKELKEKE [PUP2]: the protein stability index (doa10∆) was determined as 3.27 ± 0.066, the protein stability index (pdr5∆) was 3.34 ± 0.087, the protein stability index (san1∆) is 3.44 ± 0.094 and the protein stability index (ubr1∆) was found to be 3.31 ± 0.064.
The corresponding values for ADNGEEYLTLNDFNDLN [MED2] are 2.96 ± 0.23, 3.3 ± 0.14, 3.55 ± 0.12 and 3.27 ± 0.082.
Turning to NTTTRVIPQVEVGNRKH [SNF5], the protein stability index came to 2.21 ± 0.2 (doa10∆), 2.46 ± 0.095 (pdr5∆), 2.35 ± 0.17 (san1∆) and 2.62 ± 0.094 (ubr1∆).
Regarding RARGPMQVLTRQPVEGR [RPB2], the protein stability index was found to be 2.88 ± 0.2 (doa10∆), 2.36 ± 0.21 (pdr5∆), 2.79 ± 0.11 (san1∆) and 2.98 ± 0.24 (ubr1∆).
For the sequence VASLVLARGHRVEKIPE [RPL4A], for the setting “pdr5∆”, the protein stability index worked out at 3.4 ± 0.24.
